In one experiment the target is ARPC4 (human) (UniProt P59998). The experiment in a line: co-IP, anti-FLAG, lysate of cells with C-FLAG B3GNT2; mass spectrometry.
The target in a further experiment is EIF5B (human) (UniProt O60841). The experiment is described as above.
The target in a further experiment is HSPA8 (human) (UniProt P11142). The description is as above.
The target of another experiment is LSM12 (human) (UniProt Q3MHD2). The description is as above.
A further experiment has as its target T1, MOV10 (human) (UniProt Q9HCE1).
T1 sequence (looked up): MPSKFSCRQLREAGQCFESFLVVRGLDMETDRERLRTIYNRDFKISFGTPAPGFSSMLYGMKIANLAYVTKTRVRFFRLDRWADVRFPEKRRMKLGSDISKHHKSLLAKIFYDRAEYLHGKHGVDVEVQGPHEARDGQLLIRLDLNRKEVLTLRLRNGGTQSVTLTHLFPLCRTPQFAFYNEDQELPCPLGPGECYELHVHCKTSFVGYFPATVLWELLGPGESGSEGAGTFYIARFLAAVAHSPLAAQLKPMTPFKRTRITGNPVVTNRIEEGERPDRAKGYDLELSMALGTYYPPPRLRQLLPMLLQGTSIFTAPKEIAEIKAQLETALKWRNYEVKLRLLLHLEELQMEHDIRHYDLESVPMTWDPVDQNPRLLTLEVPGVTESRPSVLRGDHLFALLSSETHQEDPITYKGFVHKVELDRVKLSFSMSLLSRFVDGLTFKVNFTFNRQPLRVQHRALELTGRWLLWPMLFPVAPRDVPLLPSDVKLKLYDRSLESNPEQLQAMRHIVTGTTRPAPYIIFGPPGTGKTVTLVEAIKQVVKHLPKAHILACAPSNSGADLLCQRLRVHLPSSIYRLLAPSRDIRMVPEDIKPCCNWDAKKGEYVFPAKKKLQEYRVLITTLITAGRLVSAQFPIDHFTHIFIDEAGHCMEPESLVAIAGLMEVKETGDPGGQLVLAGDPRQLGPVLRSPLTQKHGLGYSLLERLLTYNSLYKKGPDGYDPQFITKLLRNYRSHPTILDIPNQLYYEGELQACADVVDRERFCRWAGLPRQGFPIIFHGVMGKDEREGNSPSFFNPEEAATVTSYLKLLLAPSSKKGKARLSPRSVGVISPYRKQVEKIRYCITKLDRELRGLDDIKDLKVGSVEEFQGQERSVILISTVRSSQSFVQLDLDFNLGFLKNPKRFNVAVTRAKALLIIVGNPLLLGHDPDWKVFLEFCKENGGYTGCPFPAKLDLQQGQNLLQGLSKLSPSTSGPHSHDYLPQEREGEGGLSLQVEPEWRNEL
Described as above.

A further experiment addresses PARP1 (human) (UniProt P09874). Described as above.
A further experiment concerns the target RPL13 (human) (UniProt P26373). Described as above.
In the next experiment the target is ATP1A1 (human) (UniProt P05023). The experiment in a line: co-IP/MS, IgG control IP of C-FLAG B3GNT2 cell lysate.
The next experiment addresses CANX (human) (UniProt P27824). The description is as above.
Another experiment addresses CAPZA1 (human) (UniProt P52907). Described as above.
The target in the next experiment is CAPZB (human) (UniProt P47756). Described as above.
Another experiment has as its target ERLIN2 (human) (UniProt O94905). The experiment is described as above.
Another experiment addresses FKBP10 (human) (UniProt Q96AY3). Described as above.
For another experiment, the target named is GCN1 (human) (UniProt Q92616). The description is as above.
The target of a further experiment is HSD17B12 (human) (UniProt Q53GQ0). Described as above.
For another experiment, the target named is PCBP1 (human) (UniProt Q15365). The experiment is described as above.
The target in another experiment is PIP (human) (UniProt P12273). The experiment is described as above.
In another experiment the target is RCN2 (human) (UniProt Q14257). The experiment is described as above.
Another experiment has as its target RPL24 (human) (UniProt P83731). The description is as above.
The target in the next experiment is RPLPO (human) (UniProt P05388). The description is as above.
Another experiment addresses RPS15 (human) (UniProt P62841). The description is as above.
For the next experiment, the target named is RPS3A (human) (UniProt P61247). The description is as above.
A further experiment deals with RPS5 (human) (UniProt P46782). The description is as above.
In the next experiment the target is RPS9 (human) (UniProt P46781). The description is as above.
In another experiment the target is SLC25A4 (human) (UniProt P12235). The experiment is described as above.
A further experiment has as its target SQSTM1 (human) (UniProt Q13501). The experiment is described as above.
The next experiment has as its target TGM3 (human) (UniProt Q08188). Described as above.

PIP (human), sequence (P12273 29-146 limits assumed): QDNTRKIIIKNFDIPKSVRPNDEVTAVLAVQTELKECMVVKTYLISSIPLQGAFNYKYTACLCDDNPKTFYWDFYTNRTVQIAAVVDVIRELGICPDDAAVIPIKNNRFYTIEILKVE
HSD17B12 (human), sequence (Q53GQ0 whole entry): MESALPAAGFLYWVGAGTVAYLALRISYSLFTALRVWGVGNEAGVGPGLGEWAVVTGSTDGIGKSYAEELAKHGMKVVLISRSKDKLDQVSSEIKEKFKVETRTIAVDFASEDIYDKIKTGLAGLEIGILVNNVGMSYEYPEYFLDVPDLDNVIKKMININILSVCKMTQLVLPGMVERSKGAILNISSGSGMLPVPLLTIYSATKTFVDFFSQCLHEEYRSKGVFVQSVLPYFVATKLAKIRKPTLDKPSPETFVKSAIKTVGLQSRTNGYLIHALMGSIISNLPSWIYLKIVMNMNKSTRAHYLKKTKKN
HSPA8 (human), sequence (P11142 2-646 limits assumed): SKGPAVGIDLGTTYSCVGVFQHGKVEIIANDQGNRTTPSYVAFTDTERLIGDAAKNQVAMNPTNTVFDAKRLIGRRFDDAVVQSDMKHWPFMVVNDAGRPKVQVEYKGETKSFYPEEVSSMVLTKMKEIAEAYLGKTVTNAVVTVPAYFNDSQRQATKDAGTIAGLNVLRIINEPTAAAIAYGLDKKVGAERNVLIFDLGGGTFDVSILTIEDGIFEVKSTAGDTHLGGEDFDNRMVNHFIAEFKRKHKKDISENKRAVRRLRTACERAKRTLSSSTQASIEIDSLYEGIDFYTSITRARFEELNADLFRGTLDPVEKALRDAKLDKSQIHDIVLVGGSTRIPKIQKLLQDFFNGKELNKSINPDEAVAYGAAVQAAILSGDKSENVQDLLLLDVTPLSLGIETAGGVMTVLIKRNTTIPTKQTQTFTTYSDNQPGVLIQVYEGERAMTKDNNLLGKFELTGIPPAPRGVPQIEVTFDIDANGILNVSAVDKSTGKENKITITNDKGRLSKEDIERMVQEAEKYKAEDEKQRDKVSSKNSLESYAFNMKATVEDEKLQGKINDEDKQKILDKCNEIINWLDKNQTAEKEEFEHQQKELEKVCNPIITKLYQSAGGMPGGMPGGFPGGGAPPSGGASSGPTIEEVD
EIF5B (human), sequence (O60841 whole entry): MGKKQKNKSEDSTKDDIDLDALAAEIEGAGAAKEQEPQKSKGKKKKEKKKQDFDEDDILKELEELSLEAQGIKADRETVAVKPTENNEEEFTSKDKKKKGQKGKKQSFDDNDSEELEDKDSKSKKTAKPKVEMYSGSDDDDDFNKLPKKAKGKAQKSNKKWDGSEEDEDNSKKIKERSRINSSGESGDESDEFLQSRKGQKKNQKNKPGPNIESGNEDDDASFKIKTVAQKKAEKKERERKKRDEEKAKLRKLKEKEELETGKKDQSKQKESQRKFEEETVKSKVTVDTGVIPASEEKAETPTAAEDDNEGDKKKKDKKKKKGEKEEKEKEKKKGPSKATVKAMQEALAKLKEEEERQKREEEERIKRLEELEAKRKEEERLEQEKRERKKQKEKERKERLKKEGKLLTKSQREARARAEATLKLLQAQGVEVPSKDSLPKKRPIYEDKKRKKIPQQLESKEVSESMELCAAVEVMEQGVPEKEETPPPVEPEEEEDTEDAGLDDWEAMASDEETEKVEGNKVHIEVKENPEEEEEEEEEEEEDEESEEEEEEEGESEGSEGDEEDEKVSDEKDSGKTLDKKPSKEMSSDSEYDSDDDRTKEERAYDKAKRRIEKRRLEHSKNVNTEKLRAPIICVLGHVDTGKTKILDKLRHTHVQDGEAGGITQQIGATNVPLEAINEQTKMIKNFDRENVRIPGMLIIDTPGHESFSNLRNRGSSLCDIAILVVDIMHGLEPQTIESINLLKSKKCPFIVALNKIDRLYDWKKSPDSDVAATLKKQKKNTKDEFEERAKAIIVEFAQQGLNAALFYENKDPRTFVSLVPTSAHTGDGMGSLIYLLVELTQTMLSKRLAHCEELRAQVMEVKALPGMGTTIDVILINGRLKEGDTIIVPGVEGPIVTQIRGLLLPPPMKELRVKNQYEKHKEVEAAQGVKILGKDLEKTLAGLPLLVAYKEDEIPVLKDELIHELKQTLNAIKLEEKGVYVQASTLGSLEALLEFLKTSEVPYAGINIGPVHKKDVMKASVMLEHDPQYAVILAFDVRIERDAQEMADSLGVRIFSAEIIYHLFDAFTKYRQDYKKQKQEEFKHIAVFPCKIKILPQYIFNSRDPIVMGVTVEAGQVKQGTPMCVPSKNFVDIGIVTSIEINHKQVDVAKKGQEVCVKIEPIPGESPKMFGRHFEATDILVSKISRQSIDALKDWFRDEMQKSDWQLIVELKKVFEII
TGM3 (human), sequence (Q08188 2-693 limits assumed): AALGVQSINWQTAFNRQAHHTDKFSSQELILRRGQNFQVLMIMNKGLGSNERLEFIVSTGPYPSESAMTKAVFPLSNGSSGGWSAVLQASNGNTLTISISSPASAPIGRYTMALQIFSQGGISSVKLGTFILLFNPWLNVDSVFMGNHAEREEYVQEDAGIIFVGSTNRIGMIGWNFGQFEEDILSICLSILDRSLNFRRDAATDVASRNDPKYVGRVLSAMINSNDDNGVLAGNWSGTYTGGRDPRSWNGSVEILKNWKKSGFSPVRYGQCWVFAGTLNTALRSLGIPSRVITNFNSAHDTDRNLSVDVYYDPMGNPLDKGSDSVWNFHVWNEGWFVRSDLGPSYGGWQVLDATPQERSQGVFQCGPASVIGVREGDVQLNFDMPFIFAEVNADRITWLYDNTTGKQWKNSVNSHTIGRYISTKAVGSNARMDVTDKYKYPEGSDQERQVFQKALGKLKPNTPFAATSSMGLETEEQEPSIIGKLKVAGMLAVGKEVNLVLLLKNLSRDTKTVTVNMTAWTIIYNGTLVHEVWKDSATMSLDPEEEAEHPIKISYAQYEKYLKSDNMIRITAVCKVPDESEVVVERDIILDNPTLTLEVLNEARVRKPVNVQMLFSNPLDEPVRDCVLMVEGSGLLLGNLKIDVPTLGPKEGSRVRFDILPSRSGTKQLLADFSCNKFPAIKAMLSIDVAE
PARP1 (human), sequence (P09874 2-1014 limits assumed): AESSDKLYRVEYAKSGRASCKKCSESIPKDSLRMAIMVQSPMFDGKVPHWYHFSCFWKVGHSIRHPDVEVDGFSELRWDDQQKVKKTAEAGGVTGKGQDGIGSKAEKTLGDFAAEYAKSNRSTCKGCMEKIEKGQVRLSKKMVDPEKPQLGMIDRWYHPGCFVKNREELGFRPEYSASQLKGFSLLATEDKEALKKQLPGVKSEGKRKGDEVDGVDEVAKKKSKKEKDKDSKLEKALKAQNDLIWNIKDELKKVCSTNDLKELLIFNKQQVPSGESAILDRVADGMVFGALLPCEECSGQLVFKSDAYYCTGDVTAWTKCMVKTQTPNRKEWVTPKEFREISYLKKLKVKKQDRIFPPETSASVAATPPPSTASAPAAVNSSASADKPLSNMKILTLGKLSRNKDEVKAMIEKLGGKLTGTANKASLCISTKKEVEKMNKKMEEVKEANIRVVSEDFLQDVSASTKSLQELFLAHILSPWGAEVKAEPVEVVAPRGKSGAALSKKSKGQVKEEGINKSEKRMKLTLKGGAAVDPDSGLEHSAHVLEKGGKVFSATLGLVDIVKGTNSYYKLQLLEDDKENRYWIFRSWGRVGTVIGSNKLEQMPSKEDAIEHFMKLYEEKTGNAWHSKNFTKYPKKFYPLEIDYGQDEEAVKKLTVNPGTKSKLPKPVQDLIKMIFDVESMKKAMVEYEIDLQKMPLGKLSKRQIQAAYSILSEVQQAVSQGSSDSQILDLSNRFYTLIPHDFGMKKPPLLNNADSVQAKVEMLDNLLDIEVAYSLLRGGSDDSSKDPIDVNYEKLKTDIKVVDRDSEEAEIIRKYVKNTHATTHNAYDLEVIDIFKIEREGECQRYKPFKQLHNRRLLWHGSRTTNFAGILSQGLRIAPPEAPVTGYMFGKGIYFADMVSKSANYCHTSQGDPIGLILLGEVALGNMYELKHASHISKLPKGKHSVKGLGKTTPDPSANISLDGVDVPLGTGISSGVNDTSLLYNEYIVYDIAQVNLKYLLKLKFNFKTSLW
FKBP10 (human), sequence (Q96AY3 27-582 limits assumed): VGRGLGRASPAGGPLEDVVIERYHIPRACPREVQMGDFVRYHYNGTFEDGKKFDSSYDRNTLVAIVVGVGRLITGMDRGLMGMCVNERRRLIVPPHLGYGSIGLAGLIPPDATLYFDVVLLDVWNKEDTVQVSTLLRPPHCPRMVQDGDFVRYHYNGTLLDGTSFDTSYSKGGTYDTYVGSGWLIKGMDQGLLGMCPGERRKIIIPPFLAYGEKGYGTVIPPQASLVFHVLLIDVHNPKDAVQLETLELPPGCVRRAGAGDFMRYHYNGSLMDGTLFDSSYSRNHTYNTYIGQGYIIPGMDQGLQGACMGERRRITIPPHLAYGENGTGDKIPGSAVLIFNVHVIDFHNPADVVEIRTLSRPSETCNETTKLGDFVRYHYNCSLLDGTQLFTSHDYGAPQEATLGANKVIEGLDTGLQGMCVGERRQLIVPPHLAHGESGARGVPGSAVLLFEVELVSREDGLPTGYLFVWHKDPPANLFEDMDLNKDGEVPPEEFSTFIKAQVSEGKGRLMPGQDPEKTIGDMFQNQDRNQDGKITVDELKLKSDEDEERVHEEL
PCBP1 (human), sequence (Q15365 whole entry): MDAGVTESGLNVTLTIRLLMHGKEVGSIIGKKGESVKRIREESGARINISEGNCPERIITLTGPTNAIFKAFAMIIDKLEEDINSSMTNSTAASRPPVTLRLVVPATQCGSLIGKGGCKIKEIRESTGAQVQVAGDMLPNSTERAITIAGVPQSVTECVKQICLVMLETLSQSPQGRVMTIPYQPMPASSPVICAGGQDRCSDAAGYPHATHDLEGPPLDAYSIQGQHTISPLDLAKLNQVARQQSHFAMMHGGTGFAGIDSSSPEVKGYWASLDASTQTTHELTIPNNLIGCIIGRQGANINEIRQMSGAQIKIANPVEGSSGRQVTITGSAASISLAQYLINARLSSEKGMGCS

“C-terminal FLAG tagged B3GNT2 (from UniProt Q9NY97 1-397) (enzyme)”: the co-IP mass spectrometry count in the experiment with ARPC4 (human) was determined as 3; with EIF5B (human) it was 3; in the experiment with HSPA8 (human), 49; in the experiment with LSM12 (human), 4; in the experiment with MOV10 (human), 3; with PARP1 (human), 3. The substance further showed a co-IP mass spectrometry count in the experiment with RPL13 (human) of 23.

“IgG control (Millipore Sigma 12-371) (antibody)”: the co-IP mass spectrometry count in the experiment with ATP1A1 (human), with CANX (human), with CAPZA1 (human), with CAPZB (human), with ERLIN2 (human) and in the experiment with FKBP10 (human) was 0 throughout. In addition, the co-IP mass spectrometry count with GCN1 (human) turned out to be 0; with HSD17B12 (human) it was 0; with PCBP1 (human), 3; with PIP (human), 2; with RCN2 (human) it was 0; in the experiment with RPL24 (human), 3. The co-IP mass spectrometry count is 0 with RPLPO (human); 2 with RPS15 (human); 10 with RPS3A (human); 0 with RPS5 (human); 0 in the experiment with RPS9 (human); 0 with SLC25A4 (human). Besides, the co-IP mass spectrometry count in the experiment with SQSTM1 (human) and with TGM3 (human) was 3 each time.

The record behind these values is US20240261333A1, “NOVEL TARGETS FOR ENHANCING ANTI-TUMOR IMMUNITY” (THE BROAD INSTITUTE, INC., priority 2021, published 2024).
